Reference: patent US20140378382A1 (WISCONSIN ALUMNI RESEARCH FOUNDATION, published 2014)
Non-standard residues stand in square brackets, D forms with d. No end group written: not given here.

Target: T1, PTHR-1 (species and cells not stated for the assay) (Homo sapiens (Human), UniProt Q03431 27-593)
T1 sequence: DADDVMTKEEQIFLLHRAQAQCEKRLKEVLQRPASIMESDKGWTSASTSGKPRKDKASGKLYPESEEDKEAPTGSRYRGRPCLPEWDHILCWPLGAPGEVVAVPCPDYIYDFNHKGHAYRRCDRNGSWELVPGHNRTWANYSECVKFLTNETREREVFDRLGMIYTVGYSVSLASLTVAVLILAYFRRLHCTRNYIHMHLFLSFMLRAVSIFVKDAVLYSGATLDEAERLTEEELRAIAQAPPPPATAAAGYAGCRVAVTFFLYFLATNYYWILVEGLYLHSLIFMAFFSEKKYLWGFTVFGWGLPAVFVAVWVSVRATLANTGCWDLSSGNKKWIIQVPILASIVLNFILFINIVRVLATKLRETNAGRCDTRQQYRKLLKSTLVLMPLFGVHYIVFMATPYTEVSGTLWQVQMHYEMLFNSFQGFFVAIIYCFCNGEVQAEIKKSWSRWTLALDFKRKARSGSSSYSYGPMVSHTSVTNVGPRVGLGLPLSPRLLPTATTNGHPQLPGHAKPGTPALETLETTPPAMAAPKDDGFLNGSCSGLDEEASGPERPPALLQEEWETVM
Experiment: cell-based or functional assay

B1: bPTH(7-34)dTrp12 (peptide)
peptide: FMHNL[dW]KHLSSMERVEWLRKKLQDVHNF-NH2
modifications: N-terminus assumed
SMILES: CSCC[C@H](NC(=O)[C@H](CO)NC(=O)[C@H](CO)NC(=O)[C@H](CC(C)C)NC(=O)[C@H](Cc1c[nH]cn1)NC(=O)[C@H](CCCCN)NC(=O)[C@@H](Cc1c[nH]c2ccccc12)NC(=O)[C@H](CC(C)C)NC(=O)[C@H](CC(N)=O)NC(=O)[C@H](Cc1c[nH]cn1)NC(=O)[C@H](CCSC)NC(=O)[C@@H](N)Cc1ccccc1)C(=O)N[C@@H](CCC(=O)O)C(=O)N[C@@H](CCCNC(=N)N)C(=O)N[C@H](C(=O)N[C@@H](CCC(=O)O)C(=O)N[C@@H](Cc1c[nH]c2ccccc12)C(=O)N[C@@H](CC(C)C)C(=O)N[C@@H](CCCNC(=N)N)C(=O)N[C@@H](CCCCN)C(=O)N[C@@H](CCCCN)C(=O)N[C@@H](CC(C)C)C(=O)N[C@@H](CCC(N)=O)C(=O)N[C@@H](CC(=O)O)C(=O)N[C@H](C(=O)N[C@@H](Cc1c[nH]cn1)C(=O)N[C@@H](CC(N)=O)C(=O)N[C@@H](Cc1ccccc1)C(N)=O)C(C)C)C(C)C
- EC50(+)inhibitor/EC50(-)inhibitor: 60.1 ratio
- EC50 of PTH(1-34) signaling with 1 µM inhibitor: 9.47 nM
